These results are taken from article PMC6555819, “Comprehensive study of nuclear receptor DNA binding provides a revised framework for understanding receptor specificity”.

Changes are numbered by the printed parent chain.

B1: NRC3_wobSeed118_DR4_G15A_o1 (dsDNA)
DNA 1: GCTTACCAAGGTGAACTGAGGTCGTTGATCCAACTCGCGATTGACAGCGTAGAATGAAGG
DNA 2: CCTTCATTCTACGCTGTCAATCGCGAGTTGGATCAACGACCTCAGTTCACCTTGGTAAGC
B2: NRC3_wobSeed74_DR3_G10C_o1 (dsDNA)
DNA 1: GCTCTAGTTCGTCACGGAGGTCACACACGACGGGTAGCGATTGACAGCGTAGAATGAAGG
DNA 2: CCTTCATTCTACGCTGTCAATCGCTACCCGTCGTGTGTGACCTCCGTGACGAACTAGAGC
B3: NRC3_wobSeed74_DR3_T8C_o1 (dsDNA)
DNA 1: B2 DNA 1 with T8C, C10G
DNA 2: B2 DNA 2 with G51C, A53G
B4: NRC3_wobSeed2_DR0_A20C_o1 (dsDNA)
DNA 1: GCCCTAGTTGGTCAAGGTCCCACACGCTATAGGTACGCGATTGACAGCGTAGAATGAAGG
DNA 2: CCTTCATTCTACGCTGTCAATCGCGTACCTATAGCGTGTGGGACCTTGACCAACTAGGGC
B5: NRC3_wobSeed5_DR0_G23C_o1 (dsDNA)
DNA 1: GCCCTTACGGGTCAAGGTTATACCACGGGTGGTACGGCGATTGACAGCGTAGAATGAAGG
DNA 2: CCTTCATTCTACGCTGTCAATCGCCGTACCACCCGTGGTATAACCTTGACCCGTAAGGGC
B6: NRC3_wobSeed1_DR0_T12C_o1 (dsDNA)
DNA 1: GCCAAACTAGGCCAAGGTCAAAGTCGGTTTGTGCCAGCGATTGACAGCGTAGAATGAAGG
DNA 2: CCTTCATTCTACGCTGTCAATCGCTGGCACAAACCGACTTTGACCTTGGCCTAGTTTGGC
B7: NRC3_wobSeed125_DR5_G17T_o1 (dsDNA)
DNA 1: GCCCTTACGGGTCACTTACAGGTTATAGCATTTGGAGCGATTGACAGCGTAGAATGAAGG
DNA 2: CCTTCATTCTACGCTGTCAATCGCTCCAAATGCTATAACCTGTAAGTGACCCGTAAGGGC
B8: NRC3_wobSeed125_DR5_G22C_o1 (dsDNA)
DNA 1: B7 DNA 1 with T17G, G22C
DNA 2: B7 DNA 2 with C39G, A44C
B9: NRC3_wobSeed116_DR4_G26T_o1 (dsDNA)
DNA 1: GCAGAATGAGGTTACCAAAGATCAGTGAAACGCTTGGCGATTGACAGCGTAGAATGAAGG
DNA 2: CCTTCATTCTACGCTGTCAATCGCCAAGCGTTTCACTGATCTTTGGTAACCTCATTCTGC
B10: NRC3_wobSeed116_DR4_A6G_o1 (dsDNA)
DNA 1: B9 DNA 1 with A6G, T26G
DNA 2: B9 DNA 2 with A35C, T55C
B11: NRC3_wobSeed4_DR0_A14G_o1 (dsDNA)
DNA 1: GCCCTACTGGGCCGAGGTCATTGATCAGTCAAAGCAGCGATTGACAGCGTAGAATGAAGG
DNA 2: CCTTCATTCTACGCTGTCAATCGCTGCTTTGACTGATCAATGACCTCGGCCCAGTAGGGC
B12: NRC3_wobSeed4_DR0_T25C_o1 (dsDNA)
DNA 1: B11 DNA 1 with G14A, T25C
DNA 2: B11 DNA 2 with A36G, C47T
B13: NRC3_wobSeed4_DR0_T8A_o1 (dsDNA)
DNA 1: B11 DNA 1 with T8A, G14A
DNA 2: B11 DNA 2 with C47T, A53T
B14: NRC3_wobSeed93_DR3_T17A_o1 (dsDNA)
DNA 1: GCAGTCAAAGTTCATCAAGGTAACGTAAGATATGCTGCGATTGACAGCGTAGAATGAAGG
DNA 2: CCTTCATTCTACGCTGTCAATCGCAGCATATCTTACGTTACCTTGATGAACTTTGACTGC
B15: NRC3_wobSeed42_DR1_G11A_o1 (dsDNA)
DNA 1: GCTATACAGGATCAAAGGCCAGAGTACGAATGTCGAGCGATTGACAGCGTAGAATGAAGG
DNA 2: CCTTCATTCTACGCTGTCAATCGCTCGACATTCGTACTCTGGCCTTTGATCCTGTATAGC
B16: NRC3_wobSeed88_DR3_C21T_o1 (dsDNA)
DNA 1: GCTAGCCTAGGTCATGCGGGTCAGTATAGTGTCGGCGCGATTGACAGCGTAGAATGAAGG
DNA 2: CCTTCATTCTACGCTGTCAATCGCGCCGACACTATACTGACCCGCATGACCTAGGCTAGC
B17: NRC3_wobSeed65_DR2_G27T_o1 (dsDNA)
DNA 1: GCATATGTAGGTTATCGGGTCATTCATTTTGCGCATGCGATTGACAGCGTAGAATGAAGG
DNA 2: CCTTCATTCTACGCTGTCAATCGCATGCGCAAAATGAATGACCCGATAACCTACATATGC
B18: NRC3_wobSeed65_DR2_T15C_o1 (dsDNA)
DNA 1: B17 DNA 1 with T15C, T27G
DNA 2: B17 DNA 2 with A34C, A46G
B19: NRC3_wobSeed82_DR3_T25A_o1 (dsDNA)
DNA 1: GCATCGAAAGGTCGACGAGGTGAGAATACACCGTTTGCGATTGACAGCGTAGAATGAAGG
DNA 2: CCTTCATTCTACGCTGTCAATCGCAAACGGTGTATTCTCACCTCGTCGACCTTTCGATGC
B20: NRC3_wobSeed58_DR2_A25T_o1 (dsDNA)
DNA 1: GCATCGAAAGGTCGTGAGGTGAGTTTACAGAAAGGCGCGATTGACAGCGTAGAATGAAGG
DNA 2: CCTTCATTCTACGCTGTCAATCGCGCCTTTCTGTAAACTCACCTCACGACCTTTCGATGC
B21: NRC3_wobSeed58_DR2_T26C_o1 (dsDNA)
DNA 1: B20 DNA 1 with T25A, T26C
DNA 2: B20 DNA 2 with A35G, A36T
B22: NRC3_wobSeed58_DR2_G18A_o1 (dsDNA)
DNA 1: B20 DNA 1 with G18A, T25A
DNA 2: B20 DNA 2 with A36T, C43T
B23: NRC3_wobSeed98_DR4_A19G_o1 (dsDNA)
DNA 1: GCACTAGTTGGTCAGCTGGGGTCACACACAATTCGGGCGATTGACAGCGTAGAATGAAGG
DNA 2: CCTTCATTCTACGCTGTCAATCGCCCGAATTGTGTGTGACCCCAGCTGACCAACTAGTGC
B24: NRC3_wobSeed130_DR5_C17G_o1 (dsDNA)
DNA 1: GCCTCGAAAGGTCGTGGTCAGGTGAGTATACCAAACGCGATTGACAGCGTAGAATGAAGG
DNA 2: CCTTCATTCTACGCTGTCAATCGCGTTTGGTATACTCACCTGACCACGACCTTTCGAGGC
B25: NRC3_wobSeed70_DR2_o1 (dsDNA)
DNA 1: GCGTACCAAGGTGAATAGGTCGTTGATGAGTAGGCGGCGATTGACAGCGTAGAATGAAGG
DNA 2: CCTTCATTCTACGCTGTCAATCGCCGCCTACTCATCAACGACCTATTCACCTTGGTACGC
B26: NRC3_wobSeed50_DR2_C4T_o1 (dsDNA)
DNA 1: GCCTTAGTTGGTCAGGAGGTCACACACCGGATATGAGCGATTGACAGCGTAGAATGAAGG
DNA 2: CCTTCATTCTACGCTGTCAATCGCTCATATCCGGTGTGTGACCTCCTGACCAACTAAGGC
B27: NRC3_wobSeed50_DR2_T8A_o1 (dsDNA)
DNA 1: B26 DNA 1 with T4C, T8A
DNA 2: B26 DNA 2 with A53T, A57G
B28: NRC3_wobSeed21_DR0_A15T_o1 (dsDNA)
DNA 1: GCCGTCAAAGTTCATGGTAACGTAACAGAAAGCAGCGCGATTGACAGCGTAGAATGAAGG
DNA 2: CCTTCATTCTACGCTGTCAATCGCGCTGCTTTCTGTTACGTTACCATGAACTTTGACGGC
B29: NRC3_wobSeed21_DR0_C21A_o1 (dsDNA)
DNA 1: B28 DNA 1 with T15A, C21A
DNA 2: B28 DNA 2 with G40T, A46T
B30: NRC3_wobSeed27_DR1_C4G_o1 (dsDNA)
DNA 1: GCAGTCGGAGGACAAAGGTCAGAGCTACGCCAGTGAGCGATTGACAGCGTAGAATGAAGG
DNA 2: CCTTCATTCTACGCTGTCAATCGCTCACTGGCGTAGCTCTGACCTTTGTCCTCCGACTGC
B31: NRC3_wobSeed124_DR5_T26C_o1 (dsDNA)
DNA 1: GCCCTACTGGGCCATTCAGAGGTCACTGATCATATGGCGATTGACAGCGTAGAATGAAGG
DNA 2: CCTTCATTCTACGCTGTCAATCGCCATATGATCAGTGACCTCTGAATGGCCCAGTAGGGC

LXRb:RXRa, sequence (P55055 whole entry, chain 1 of 2): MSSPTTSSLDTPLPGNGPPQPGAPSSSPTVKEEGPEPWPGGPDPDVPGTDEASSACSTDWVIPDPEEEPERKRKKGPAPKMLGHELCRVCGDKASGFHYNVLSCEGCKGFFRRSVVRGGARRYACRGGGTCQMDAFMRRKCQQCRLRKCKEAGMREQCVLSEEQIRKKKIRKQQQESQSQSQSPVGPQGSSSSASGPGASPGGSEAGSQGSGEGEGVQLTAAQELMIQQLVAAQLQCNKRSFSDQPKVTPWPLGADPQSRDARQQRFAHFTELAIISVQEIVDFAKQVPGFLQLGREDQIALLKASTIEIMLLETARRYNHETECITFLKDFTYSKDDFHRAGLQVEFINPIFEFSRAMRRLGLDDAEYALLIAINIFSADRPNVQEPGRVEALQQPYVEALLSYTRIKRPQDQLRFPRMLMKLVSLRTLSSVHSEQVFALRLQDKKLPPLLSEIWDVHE
LXRb:RXRa, sequence (P19793 whole entry, chain 2 of 2): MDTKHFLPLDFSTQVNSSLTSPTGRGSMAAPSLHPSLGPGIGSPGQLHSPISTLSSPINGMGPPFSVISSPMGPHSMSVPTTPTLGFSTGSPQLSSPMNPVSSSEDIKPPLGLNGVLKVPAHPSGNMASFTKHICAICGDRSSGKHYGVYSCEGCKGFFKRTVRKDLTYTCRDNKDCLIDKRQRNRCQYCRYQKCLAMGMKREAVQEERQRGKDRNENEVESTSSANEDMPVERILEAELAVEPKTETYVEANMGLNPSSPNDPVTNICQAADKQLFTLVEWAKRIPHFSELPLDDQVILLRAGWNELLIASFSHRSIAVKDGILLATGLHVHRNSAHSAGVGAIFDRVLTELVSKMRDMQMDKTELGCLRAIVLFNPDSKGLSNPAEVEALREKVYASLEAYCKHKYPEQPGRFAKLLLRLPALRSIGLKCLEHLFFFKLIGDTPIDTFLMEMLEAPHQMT

The target of the data set is LXRb:RXRa (Homo sapiens, UniProt P55055;P19793 full;full). Put plainly: no ligand; PBM; 270 nM : 90 nM RXRa; PBS pH 7.4, 2% milk, 0.02% Triton X-100, 1 mM DTT, BSA, 0.4 mg/ml salmon testes DNA. As to conditions: tags: His kept;His cleaved; copies: 1;1; label: surface-attached array probe. In a few lines:
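Binding buffer was PBS pH 7.4 with 2% milk, 0.02% Triton X-100, 1 mM DTT, 0.2 mg/mL BSA and 0.4 mg/ml salmon testes DNA. In it, ligand-free nuclear receptor dimers were incubated 1 h on custom Agilent 4×180K protein-binding microarrays carrying double-stranded probes. Antibodies against each partner (one per run) detected binding, and z-scores were calculated against random background probes after regression normalization of scanned fluorescence.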
For the molecule B1, the binding signal was 3.08 PBM z-score against 500 random probes.

For the molecule B2, the binding signal was 3.52 PBM z-score against 500 random probes.

Consider B3, for which the binding signal is 3.16 PBM z-score against 500 random probes.

With B4, the binding signal is 0.48 PBM z-score against 500 random probes.

On to B5, for which the binding signal was 3.06 PBM z-score against 500 random probes.

As for B6, the binding signal was 3.41 PBM z-score against 500 random probes.

Regarding B7, the binding signal is 3.58 PBM z-score against 500 random probes.

As to B8, the binding signal is 3.19 PBM z-score against 500 random probes.

For B9, the binding signal is 3.35 PBM z-score against 500 random probes.

Take B10: the binding signal was 3.28 PBM z-score against 500 random probes.

In the case of B11, the binding signal is 3.45 PBM z-score against 500 random probes.

For B12, the binding signal is 3.2 PBM z-score against 500 random probes.

For B13, the binding signal was 3.02 PBM z-score against 500 random probes.

For the molecule B14, the binding signal is 3.53 PBM z-score against 500 random probes.

As to B15, the binding signal is 0.47 PBM z-score against 500 random probes.

As for B16, the binding signal is 3 PBM z-score against 500 random probes.

In the case of B17, the binding signal is 3.32 PBM z-score against 500 random probes.

B18: the binding signal was 3.17 PBM z-score against 500 random probes.

For the molecule B19, the binding signal is 3.13 PBM z-score against 500 random probes.

As to B20, the binding signal was 3.5 PBM z-score against 500 random probes.

Take B21: the binding signal is 3.15 PBM z-score against 500 random probes.

In the case of B22, the binding signal was 3.09 PBM z-score against 500 random probes.

Take B23: the binding signal is 3.54 PBM z-score against 500 random probes.

Turning to B24, the binding signal was 3.33 PBM z-score against 500 random probes.

As for B25, the binding signal was 0.5 PBM z-score against 500 random probes.

Take B26: the binding signal is 3.43 PBM z-score against 500 random probes.

For B27, the binding signal was 3.37 PBM z-score against 500 random probes.

Regarding B28, the binding signal was 3.49 PBM z-score against 500 random probes.

On to B29, for which the binding signal is 3.04 PBM z-score against 500 random probes.

In the case of B30, the binding signal was 3.47 PBM z-score against 500 random probes.

B31: the binding signal was 3.39 PBM z-score against 500 random probes.
